Experimental data reported in paper PMC10641069, “Intra- and inter-molecular regulation by intrinsically-disordered regions governs PUF protein RNA binding” (Nature Communications, 2023).
Changes are numbered by the printed parent chain. Names and notes keep the numbering of the source. Values joined by “and” are separate entries in the source; they are usually repeats but may differ in a detail not shown here. Equal entries are not always repeated. “Also recorded” adds a separate entry of the source. Where two headings read alike, the source gives them in different places.

Legend:
[1] = biological target: FBF-2 RBD (Caenorhabditis elegans) (UniProt Q09312); experiment: ITC; conditions: cited from earlier work
[2] = biological target: T1, FBF-2 RBD + CT (FBF-2 residues 164-632) (C. elegans, UniProt Q09312 164-632); experiment: cell-based or functional assay
T1 sequence (looked up): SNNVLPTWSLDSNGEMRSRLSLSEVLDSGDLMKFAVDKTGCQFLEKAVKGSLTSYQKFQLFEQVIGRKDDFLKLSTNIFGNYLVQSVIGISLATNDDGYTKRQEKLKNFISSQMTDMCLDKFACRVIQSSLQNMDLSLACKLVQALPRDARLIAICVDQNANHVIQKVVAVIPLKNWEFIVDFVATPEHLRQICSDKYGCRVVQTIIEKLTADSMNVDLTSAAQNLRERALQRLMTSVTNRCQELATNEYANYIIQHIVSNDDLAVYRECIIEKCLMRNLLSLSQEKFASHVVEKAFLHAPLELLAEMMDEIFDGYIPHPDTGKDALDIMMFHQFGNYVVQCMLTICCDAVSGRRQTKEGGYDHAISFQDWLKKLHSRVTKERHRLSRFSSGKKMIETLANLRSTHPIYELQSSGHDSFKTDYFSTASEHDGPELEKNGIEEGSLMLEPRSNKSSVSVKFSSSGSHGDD

[3] = biological target: T2, FBF-2 RBD (FBF-2 residues 164-575) (C. elegans, UniProt Q09312 164-575); experiment: ITC
T2 chain: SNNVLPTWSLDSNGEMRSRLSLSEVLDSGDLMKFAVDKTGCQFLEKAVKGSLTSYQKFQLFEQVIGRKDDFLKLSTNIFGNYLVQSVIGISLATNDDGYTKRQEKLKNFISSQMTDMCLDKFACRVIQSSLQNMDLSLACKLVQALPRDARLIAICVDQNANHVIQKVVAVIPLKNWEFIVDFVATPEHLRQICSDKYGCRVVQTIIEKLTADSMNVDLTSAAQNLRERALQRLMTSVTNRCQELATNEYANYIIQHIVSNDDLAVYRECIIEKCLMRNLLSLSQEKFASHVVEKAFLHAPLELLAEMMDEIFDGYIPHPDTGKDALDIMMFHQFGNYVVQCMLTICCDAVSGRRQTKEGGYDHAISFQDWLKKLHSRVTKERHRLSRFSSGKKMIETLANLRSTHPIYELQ

[4] = biological target: T3, FBF-2 RBD + CT L610A (C. elegans, UniProt Q09312 164-632, L610A); experiment: ITC
T3 sequence: T1 sequence (looked up) with L447A

[5] = biological target: T2, FBF-2 RBD (FBF-2 residues 164-575); experiment: ITC
[6] = biological target: T4, FBF-2 RBD + CT L610A (C. elegans, UniProt Q09312 164-632, L610A); experiment: ITC; peptide (100–400 µM) titrated from the syringe into the cell containing FBF-2 (10–30 µM); 20 °C; 20 mM HEPES pH 7.4, 150 mM NaCl, 0.5 mM TCEP; no RNA; one-site model; mean of two replicates; conditions: both partners purified
T4 construct: source: E. coli, expressed and purified like wild type proteins; not shown: His6-SUMO, N-terminal, cleaved
T4 sequence (looked up): T1 sequence (looked up) with L447A

[7] = test system: C. elegans; conditions: cited from earlier work; for sterile progeny: fbf-1 loss-of-function background, failure to initiate oogenesis, ref 41 (Wang, et al. 2016); for germline phenotype: animals expressing mutant FBF-2, unpublished, ref personal communication, Kimble lab
Text: Our previous structural and biochemical studies relied on FBF-2^164–575, a fragment with the RBD that lacks its intrinsically disordered C-terminal tail but retains its in vivo RNA-binding specificity (Fig. 1a)[17],[18],[36],[39],[40]. […] A worm strain that expresses truncated FBF-2 lacking the C-terminal 26 residues (607-632) was generated in an fbf-1 loss-of-function background. Approximately 11% of the mutant progeny were sterile due to failure to initiate oogenesis, indicating a germline defect. In contrast, worms expressing full-l ... || In the PUF hub, FBF-1 and FBF-2 play a more prominent role than PUF-3 and PUF-11[55]. FBF-1 and FBF-2 amino acid sequences are 91% identical and have largely overlapping functions. […] When the CT of FBF-1 is replaced with the FBF-2 CT, the chimeric protein produces a progenitor region that m ... || page 6: Reviewer #2 (Remarks to the Author): This manuscript uses structural and biochemical approaches to understand how partner proteins and intrinsically disordered regions (IDRs) impact RNA binding of FBF-2. The crystal structure of FBF-2 CT is novel and the proposed role of the CT in autoinhibition by intramolecular interaction with RBD is interesting. However, why this autoinhibition would be needed in vivo is less clear, especially in regard to the interaction with partner proteins. While the authors also mention this shortcoming, some attempt to address the biological consequences of t ...

LST-1 A LST-1 A (from UniProt P91820)
Kd [1]: 2100 nM

LST-1 B LST-1 B (from UniProt P91820)
Kd [1]: 50 nM

B1: LST-1 A peptide (LST-1 residues 19-50) (peptide, UniProt P91820 19-50, looked up)
chain: STIAYSKSQHEAPKQLLQLRSEIKPLIPLNQP
notes: The tag was cleaved with Ulp1 protease; also called LST-1^19–50; source: E. coli, purified (Ni-NTA, HiTrap Q flow-through, Superdex 75); not shown: His6-SUMO, N-terminal, cleaved
RNA-binding affinity of FBF-2 RBD + CT for gld-1 FBEa RNA by EMSA in the presence of 150 µM LST-1 A [2]: 3 fold
Kd [3]: 2100 nM
Kd [4]: 2100 nM and 2600 nM
Kd [5]: 2130 nM and 2020 nM
Kd [6]: 2400 nM

B2: full-length FBF-2: worms expressing full-length FBF-2 in an fbf-1 loss-of-function background (protein, UniProt Q09312 1-632, looked up)
chain: MDQSKMRRTNQFRKTSQKPPSTGIDSYPTPAQSPMAQHETPMWDFNSLNPYFSMLNMNDGINYARHQQNHIVTSRPPTPLTDLMSLRSFQSFPNVFMPVSRSRTSSFIQSDTDSSRLESDDFSQNVRCFSADIDRSKSYGSSKHYHLKYSRPALSRNSRSFTRSNNVLPTWSLDSNGEMRSRLSLSEVLDSGDLMKFAVDKTGCQFLEKAVKGSLTSYQKFQLFEQVIGRKDDFLKLSTNIFGNYLVQSVIGISLATNDDGYTKRQEKLKNFISSQMTDMCLDKFACRVIQSSLQNMDLSLACKLVQALPRDARLIAICVDQNANHVIQKVVAVIPLKNWEFIVDFVATPEHLRQICSDKYGCRVVQTIIEKLTADSMNVDLTSAAQNLRERALQRLMTSVTNRCQELATNEYANYIIQHIVSNDDLAVYRECIIEKCLMRNLLSLSQEKFASHVVEKAFLHAPLELLAEMMDEIFDGYIPHPDTGKDALDIMMFHQFGNYVVQCMLTICCDAVSGRRQTKEGGYDHAISFQDWLKKLHSRVTKERHRLSRFSSGKKMIETLANLRSTHPIYELQSSGHDSFKTDYFSTASEHDGPELEKNGIEEGSLMLEPRSNKSSVSVKFSSSGSHGDD
modifications: full-length
notes: worms expressing full-length FBF-2 in an fbf-1 loss-of-function background
germline progenitor region length ([7]; expressed as sole FBF protein, vs FBF-1): shorter germline progenitor regions than FBF-1
sterile progeny [7]: 0%

B3: FBF-2 Y479A: FBF-2 Y479A expressed in animals (Kimble lab, unpublished) (protein, UniProt Q09312 1-632, looked up, variant Y479A)
Fem-3 mRNA-binding factor 2: B2 chain with Y479A
germline phenotype [7]: no defects were detected in germline stem cell self-; also recorded: defect in the sperm-to-oocyte switch

B4: FBF-2 L610A: FBF-2 L610A; attempts to generate animals were unsuccessful (protein, UniProt Q09312 1-632, looked up, variant L610A)
Fem-3 mRNA-binding factor 2: B2 chain with L610A
germline phenotype [7]: dominant sterile

B5: truncated FBF-2: FBF-2 lacking the C-terminal 26 residues (607-632), expressed in worms (protein, UniProt Q09312 1-606, looked up, fragment)
chain: MDQSKMRRTNQFRKTSQKPPSTGIDSYPTPAQSPMAQHETPMWDFNSLNPYFSMLNMNDGINYARHQQNHIVTSRPPTPLTDLMSLRSFQSFPNVFMPVSRSRTSSFIQSDTDSSRLESDDFSQNVRCFSADIDRSKSYGSSKHYHLKYSRPALSRNSRSFTRSNNVLPTWSLDSNGEMRSRLSLSEVLDSGDLMKFAVDKTGCQFLEKAVKGSLTSYQKFQLFEQVIGRKDDFLKLSTNIFGNYLVQSVIGISLATNDDGYTKRQEKLKNFISSQMTDMCLDKFACRVIQSSLQNMDLSLACKLVQALPRDARLIAICVDQNANHVIQKVVAVIPLKNWEFIVDFVATPEHLRQICSDKYGCRVVQTIIEKLTADSMNVDLTSAAQNLRERALQRLMTSVTNRCQELATNEYANYIIQHIVSNDDLAVYRECIIEKCLMRNLLSLSQEKFASHVVEKAFLHAPLELLAEMMDEIFDGYIPHPDTGKDALDIMMFHQFGNYVVQCMLTICCDAVSGRRQTKEGGYDHAISFQDWLKKLHSRVTKERHRLSRFSSGKKMIETLANLRSTHPIYELQSSGHDSFKTDYFSTASEHDGPELEKNGIEEG
sterile progeny [7]: Approximately 11%
